B1: Sas-Fc (Fc fusion, Drosophila, UniProt Q04164 42-1635, looked up)
chain: APAGEDAAATTMPPLDTTTDAPDAVAATTTPATTAAEQSSSISSITTEAADGSTTSTTTTTEAANKSNATETDFTTNVPVASSLPEETSVRSTSIEPITSTEPTTTPRQETEGPDQHMVFSNTEPDQSHIQHIPLRDEHAESSGADDATTEMQRQREQDQQQNELNQISNEQDDVVKDLNNFRHPATLITASNSNSEENVEIESDKQVETTTTAVPAAATSTSTEATGTPPTGTPATSTSTVPNEREEDPYHVHILSENHDRLAEHEDYQMLSTSTEESSTTSTTSTTNSTTESGIVAGIVVSQENKATAEPSTATESTSISTSTTTAATAATSTTSRARAMHMNDPEDEAATTIMPDSESVPVINIVEGQHMLQQEDQKDEEEEGVVKESESSSTTEASTTTTEPSPFVAFAGEGRSAGGGNDIELFLHHNGSTHEQLMDLSDVSMDGDQNEGSSKTESSTTSTTTTTAQPETEMPKIVEITASGDTMQRECLANNKSYKHGELMERDCDERCTCNRGDWMCEPRCRGLSYPRGSQRSMANPNCLEKMVEEDECCRVMECSEPQLEPTVVATEGAAPSTNGTGESAVTLPTTDDEATPKPRTDCHYNSGVYKFRERLEIGCEQICHCAEGGVMDCRPRCPERNHTRLDKCVYVKDPKDVCCQLELCDVTLDDHEQQPTPLQSNNNEDPEEIDPFRFQEQARDAGGAKPTCTFKGAEYDVGQQFRDGCDQLCICNEQGIHCAKLECPSNFGLDVQDPHCIRWEPVPADFKPSPPNCCPESMRCVDNGTCSYQGVQIENWSPVPANLTGCDQHCYCENGRVECRAACPPVPALPPADLPCHPALARLLPIPDDECCKHWMCAPQIPKIGGAGQDEETEATSTHSSIPANETTTTTATANKSTSIPSKVPQIKKDEEKRPPASGAFYPTLDGKPPKSIGGLGIFEKPEKPEKAHKKVQHQQQQHQQQEQQEQQQHQNDVIFDGDRTEEQEEPLPPNGGFVPFQFGQQHPHQPHLGPYGFYNPVKPVYEDYNPYEPYDINPNGTPQGKPPPVPTSQSDLFNILGAEQPGHPVHPGHGGPPRIHPGQTQKDNHNLGPQVRIEQILQHLQQTVPGGPPPPPPHQQHQSLTPQLHPQQQQISQQHPGHYVPIVHSGVPPPPPGHGIAIVDGQTVAYESYPVIPGLGVPQHHPQQHQTTPQQHLQQTILPSSSTTSGLSTQASEHSLHQNQGKLAKQQQSGANNLQPDIEVHTLEAIDPRSIRIVFTVPQVYVNLHGRVELRYSNGPSNDTSTWEQQIFAPPEDLIATSQMEFDLPSLEPNSLYKVKITLILRDLNSQPTSSIYTVKTPPERTITPPPPFPDYRPDFQDIFKNVEDPELTVSETNASWLQLTWKKLGDDQMEYVDGVQLRYKELTGMIYSSTPLIHRTLTSYTIQNLQPDTGYEIGLYYIPLAGHGAELRAGHMIKVRTAQKVDVYGFDVTVNVTKVKTQSVEISWNGVPYPEDKFVHIYRAIYQSDAGKEDSSVFKVAKRDSTTGTLIMDLKPGTKYRLWLEMYLTNGNTKKSNVVNFITKPGGPATPGKTGKLLTAGTDQPVGDYYGPL

What was measured:
Dscam 7.13.25 isoform = assay: AlphaScreen or HTRF
Ptp10D-AP = molecular target: T1, Ptp10D-AP (Drosophila, UniProt P35992 43-1197); assay: AlphaScreen or HTRF
T1 sequence (looked up): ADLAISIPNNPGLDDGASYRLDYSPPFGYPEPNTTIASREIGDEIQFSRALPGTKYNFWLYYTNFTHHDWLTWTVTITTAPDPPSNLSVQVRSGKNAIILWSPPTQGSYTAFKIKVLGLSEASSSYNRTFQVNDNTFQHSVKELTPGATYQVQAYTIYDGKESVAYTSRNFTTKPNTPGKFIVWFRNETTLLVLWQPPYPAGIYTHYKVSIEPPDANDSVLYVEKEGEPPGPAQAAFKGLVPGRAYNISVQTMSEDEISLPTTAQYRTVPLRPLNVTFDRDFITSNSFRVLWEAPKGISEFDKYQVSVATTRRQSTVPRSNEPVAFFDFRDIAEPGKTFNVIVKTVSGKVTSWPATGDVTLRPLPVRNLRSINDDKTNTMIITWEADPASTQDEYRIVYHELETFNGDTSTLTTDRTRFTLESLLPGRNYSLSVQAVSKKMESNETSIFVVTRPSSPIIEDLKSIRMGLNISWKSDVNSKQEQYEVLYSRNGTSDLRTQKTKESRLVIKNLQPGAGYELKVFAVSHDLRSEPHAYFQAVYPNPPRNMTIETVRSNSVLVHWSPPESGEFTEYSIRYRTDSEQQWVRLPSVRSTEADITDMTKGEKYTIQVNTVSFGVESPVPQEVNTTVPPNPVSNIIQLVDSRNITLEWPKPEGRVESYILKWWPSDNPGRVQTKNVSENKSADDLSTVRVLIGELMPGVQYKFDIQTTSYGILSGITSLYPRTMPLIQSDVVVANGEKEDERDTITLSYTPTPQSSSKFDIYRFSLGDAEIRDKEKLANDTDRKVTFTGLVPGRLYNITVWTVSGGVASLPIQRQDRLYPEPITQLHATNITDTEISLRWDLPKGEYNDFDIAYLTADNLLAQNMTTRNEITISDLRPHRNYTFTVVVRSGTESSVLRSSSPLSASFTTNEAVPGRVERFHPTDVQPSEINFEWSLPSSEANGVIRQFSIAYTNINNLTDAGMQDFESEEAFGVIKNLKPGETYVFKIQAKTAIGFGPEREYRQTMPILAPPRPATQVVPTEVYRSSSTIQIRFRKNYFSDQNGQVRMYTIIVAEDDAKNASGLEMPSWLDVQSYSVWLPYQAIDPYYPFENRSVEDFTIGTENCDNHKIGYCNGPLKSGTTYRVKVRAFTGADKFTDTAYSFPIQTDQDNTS

Molecule | fold signal of homophilic binding over heterophilic binding of 7.13.25 to 7.8.25 (Dscam 7.13.25 isoform) [fold] | signal-to-background ratio (Sas-Fc::10D-AP vs. Sas-Fc::69D-AP or Sas-Fc::blank) (Ptp10D-AP) [fold]
Dscam 7.13.25 isoform (natural protein) | 178 | 
B1 |  | ~6

From PMC3683152 (Neuron, 2013)
